Assay: yeast display, Sf9 membrane polyspecificity reagent, FACS + sequencing; frameworks hold sequencing errors
Summary of the method: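 Galactose-induced (36–48 hours) yeast carrying a synthetic nanobody display library were exposed to 10% biotinylated, detergent-solubilized Sf9 membrane reagent at 4 °C for 1 hour. FACS followed streptavidin microbead enrichment, using low and high (top ~1%) gates for expression (anti-HA) and reagent binding (streptavidin). Colony PCR, MiSeq 2 × 250 sequencing and CDR-length filtering followed. Labels for polyreactivity reflect the gate of origin.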

Row | Sequence | polyreactivity (PSR sort gate)
1 | QVQLVESGGGLVQAGGSLRLSCDASGSIFEYYAMGWYRQAPGKERELVAAIRVSDVNTYYADSVKGRFTISRDNAKNTVYFQMNSLKPEDTAVYYCANAYKGYSDFDYWGQGTQVTVSS | high polyreactivity
2 | QVQLVESGGGLVQAGGSLRLSCAASGFTFYAYAMGWYRQAPGKERELVAAISGSGGRTYYADSVKGRFTISRDNAKNTVYLQMNSLKPEDTAVYYCAADRPGGSYDYWGQGTQVTVSS | high polyreactivity
3 | QVQLVESGGGLVQAGGSLRLSCAASGSIFKYYAMGWYIQAPGKERELVAAITYSGGSTYYADSVKGRFTISRDNAKNTVYLQMNSLKPEDTAVYYCNKVYKSYYWGGYEWGQATQVTVSS | high polyreactivity
4 | QVQLVESGGGLVQAGGTLRLSCAASGYTLTINVMGWYRPAPGKERELVAAITSSGASTNYADSVKGRFTISRDNAKNTVYLQMNSLKPEDTAVYYCNVGNEHQSDFVVPFDYNHWGQGTQVTVSS | low polyreactivity
5 | QVQLEESGRGLDQAGVSLRLSCAASVSTFAGYAMGWYRQAPVKERELVATITYSGGSTYYADSVKGRFTISRDNAKNTVYLQMNSLKPEDTAVYYCAKKASDWWGYEYWGQGTQVTVSS | low polyreactivity
6 | QVQLVESGGGLVQAGGSLRLSCAASGIIFGRYAMGWYRQAPGKERELVAAISTSGGSTYYADSVKGRFTISRDNAKNTVYLQMNSLKPEDTAVYYCNAVPVVRAGHGYDSWGQGTQVTVSS | high polyreactivity
7 | QVQLVESGGGLVQAGGSLRLSCAASGRTFVRNAMGWYRQAPGKERELVAAISRGGRTNYADSVQGRFTISRDNAKNTVYLKMNSLKPEDTAVYYCATGAGYYFDYDYWGQVTQVTVSS | high polyreactivity
8 | QVQLVESGGGLVQAGGSLRLSCAASGRNFHKYAMGWYRQAPGKERELVAAITGSGVRTYYADSVKGRFTISRDNAKNTVYLQMNSLKPEDTAVYYCNADSYYGNGDYWGQGTQVTVSS | high polyreactivity
9 | QVQLVESGGGLVQAGGTLRLSCAASGSTFGYNAMGWYRQAPGKERELVARITSSGGSTYYADSVKGRFTISRDNAKNTVYLQMNSLKPEDTAVYYCAAGYPYRAVYRYYYWGQGTQVTVSS | high polyreactivity
10 | QVQLVESGGGLVQAGGSLRLSCAASGSTFAINAMGWYRQAPGKERELVAAISSSGSTNYADSVKGRFTISRDNAKNTVYLQMNSLKPEDTAVYYCAADQYWDGYDFLYDYWGQGTQVTVSS | low polyreactivity
11 | QVQLVESGGGLVQARGSLRLSCAASGSISVYNAMGWYRQAPGKERELVAAISWSGGRTSYADSVKGRFTISRDNAKNTVYLQMNSLKPEDTAVYYCAADELTVLWDEDYWGQGTQVTVSS | low polyreactivity
12 | QVQLVESGGGLVQAGGSLRLSCASSGYTFTVYAKGWYRQAPGKERELVAAITWNGASTYYADSVKGRFTISRDNAKNTVYLQMNSLKPEDTAVYYCADPYYFYRDRYRLDYWGQGTQVTVSS | low polyreactivity
13 | QVQLVESGGGLVQAGGSLSLSCAASGSIFGTNAMGWYRQAPGKERELVAAISSSGASTYYADSVKGRFTISRDNAKNSVYLQMNSLKPEDTAVYYCARGYTYQSSSFYYWGQGTQVTVSS | low polyreactivity
14 | QVQLVESGGGLVQAGGSLRLSCAASGRTFRLYAMGWYRQAPGKERELVAAITRGGRTNYADSVKGRFTISRDNAKNTVYLQMNSLKPEDPAVYYCAARYVERHTDYYYWGQGTQVTVSS | low polyreactivity
15 | QVQLVESGGGLVQAGGSLRLSCAAYGFTFWRNAMGWYIQAPGKERELVAAISASGGSTYYASSVKGRFTISRDNAKNTVYLQMNSLKPEDTAVYYCNAGEWAISEWGWVVDYDYWGQGTQVTVSS | low polyreactivity
16 | QGQLVESGGGLVQAGGSLRLSCAASGRTFPRYAMGWYRQAPGKERELVAVISFSGDSTSYADSVKGRFTISRDNAKNTVYLQMNSQKPEDTAVYYCKADYKSTVVRYSGSRNYWGQGTQVTVSS | low polyreactivity
17 | QVQLVESGGGLVQAGGSLRICCADSGLTFRFYSSGWYRQAPGKEMELVAAISRSGGSTYYADSVKGRFTISRDNAKNTVYLQMNSLKPEDSAVYYCAAGRRGGKHGGTRGGDYWGQGTQVTVSS | high polyreactivity
18 | QVQLVESGGGLVQAGGSLRLICAASGSTFDYYAKGWYRQATGKERELVASITWGDGSTYYADSVKGRFTISRDNAKNTVYLQRNSLKPEDTAVYYCNDDDTQLESYAPGHGYDYWGQGTQVTVSS | low polyreactivity
19 | QVQLAESGGGLVQAGGSLRLSCAASGRTFGRYVMGWYRQAPGKERELVAAITSSSSSTYADSVKGRFTISRDNAKNTVYLQMNSLKPEDTAVYYCNKRYTSRHRPEYDYWGQGTQVTVSS | high polyreactivity
20 | KVQLVESGGGLVQAGGSLRLSCAASGSIFGRYAMGWYIQAPGKERELVAGISSSGGRTYYADSVKGRFTISRDNAKNTVYLQMNSLKPEDTAVYYCAAVRSSWSYYYWGQGTQVTVSS | high polyreactivity
21 | QVQLVESGGGLVQAGGSLRLSCAASGNTFTTYAMGWYRQAPGKERELVAAISRRGGSTYYADSVKGRFTISRDNAKNTVYLQMNSLKPDDTAVYYCARRYFYTYGYWGQGTQVTVSS | high polyreactivity
22 | QVQLVQSGGCLVQAGGSLRLSCAASGRIFGYYAIGWYRQAPGKERELVAGISRSGGSTYYADSVKWRFTISRDKAKNTVYLQMNSLKPEDTAVYYCAARFNGQTYYYWGQGTQGTVSS | high polyreactivity

Row | Sequence | polyreactivity (PSR sort gate)
23 | QVQLVESGGGLVQAGGSLRLSCAASGTTFGQYAKGWYRQAPGKERDLLAAISSGGRTNYADSVKGRFTISRDNAKNTVYLQMNCVKPEDSAVYDCAARYYFPFRRFRRMDYWGQGTQVTVSS | high polyreactivity
24 | QVQLVESGGGLVQAGGSLRLSCAASGSIFFKYTMGWYRQAPGKEREFVAAISYSGGRTYYADSVKGRFTISRDNAKNTVYLQMNSLKPEDTSVYYCATRDEITHGDRMDYWGQGTQVTVSS | low polyreactivity
25 | QVQLVESGGGLVKAGGSLRLSCAASGRIFKIYAMGWYRQAPGKERELVAAISGRGGSTYYADSVKGRFTISRDNAKNTVYLQLNSLKPEDTAVYYCAAVGYGFSAYSTYDYWGQGTQVTVSS | high polyreactivity
26 | QVQLVESGGGLVQAGGSLRLSCAASGYIFWINSMGWYRQAPGKERELVAAIRYSTGRTYYADSVKGRFTISRDNAKNTVYLQMNSQKPEDTAVYYCNARSWYIRGSQEYYYWGQGTQLTVSS | high polyreactivity
27 | QVQLVESGGGLVQAGGSLRLSCAASGHIFNYYAMGWYRQAPGKERELVAAIRSGARTSYADSVKGRFTISRDNAKNTVNLQMNSLKPEDTAVYYCAAVGVAYLYPSDYWGQGTQVPVSS | high polyreactivity
28 | QVQLVESGGGLVQAGGSLRLSCAASGFTFAHYAMGWYRPAPGKERELVAAISGSGSSTYYADSVKGRFTISRDYAKNSVYLKMNSLKPEDTAVYYCNVRWYFLYYYWGQGTQVTVSS | low polyreactivity
29 | QVQLVESGGGLVQAGGSLRLSCAASGSTLYWNAMGWYRQAPGKERELVASITSSGGSTYYADSVKGRFTISRDNAKNTVYLQMNSLKPEDTAVYYCATESWWRYSEYYYWGQGTQVTVSS | low polyreactivity
30 | QVQLVESGGGLVQAGGSLRLSCAASGSTFGYNTMGWYRQAPGKEREWVAAITGTGRTNYADSVKGRFTISRDNAKNTVYLQMNSLKPEDTAVYYCAASLWQRAIGRYEYWGQGTQVTVSS | high polyreactivity
31 | QVQLVESRGGLDQAGGSLRLSCAASGSTFYMYAMGWYRQAPGKERELVASITSGDGSTYYADSVKGRFTISRDNAKNTVYLQMNSLKPEDTAVYYCNAVLEGWFYQYDYWGQGTQVTVSS | low polyreactivity
32 | QVQLVESGGGLVQAGGSLRLSCAASGRTLGVYTMGWYRQAPGKERELVATISWDGGITYYADSVKGRFTISRDNAKNTVYLQMNSLKPEDNAVYYCAAVDHSYGWMDYWGQGTQVTVSS | low polyreactivity
33 | QVQLVESGGGLVQAGGSLRLSCAASGSTFSLYAMGWYRQAPGIERELVAAIRSSGSTKYADSVKGRFTISRDNAKNTVYLQINSLKPEETAVYYCAAVSVTRADGRSGYEYWGQGTQVTVSS | low polyreactivity
34 | QVQLQESGGGLVQAGGSLRLSCAASGSISRYYDMGWYRQAPGKEREFVAGISGGAITYYADSVKGRFTISRDNAKNTVDLQMNSLKPQDTAVYYCAADTGVYQYHSYWGQGTQVTVSS | low polyreactivity
35 | QVRLVESGGGLFQAGGSLRISCAASGRIFNTYAMGWYRQAPGKERELVAAIRWSSGSTFYADSVKGRFTISRDYAKNTVYLQMNSLKPEDTAVYYCAADNWAVNAYYGYIYDYWGQGTQVTVSS | low polyreactivity
36 | QVQLVESGGGLVQAGGSLRLSCAASGFIFDAYAMGWYRQAPGKERELVAAITRGNTYYADSVKGRFTISRDNAKNTVYLQMNSLKPEDTAVYYCAARYWQSYRSQVTHSSTLDYWGQGTQVTVSS | low polyreactivity
37 | QVQLVESGGGKVQAGGSLRLSCAASGLTFWSYAMGWYRQAPGKERELVAAISGTGGRTYYADSVKGRFTITRDNAKNTVYLQMTSLKPEDTAVYYCTARTWRWYFTFDYWGQGTQVNVSS | high polyreactivity
38 | KGQLVESGGGLVQEGGSLRLSCAASGNTFVNNHMVWYRQAPGEERELVAAISRRAGSTYYADSVKGRFTISRENAKNTVYIQKNSLKPEENAVYYCAARGSRYYYVQGASKYDYWGQGTQVTVSS | high polyreactivity
39 | QVQLVESGGGLVQAGGSLRLSCAASGLTFNYYAMGWYRQAPGKERELVAAITSSGGRTYYADSVKGRFTISRDNAKNTFYLQMNSLKPEDTAVYYCNTVSYRQGAVWFRYDYWGQGTQVTVSS | high polyreactivity
40 | QVQLVESGGGLVQAGGSLRLSCAASGRIIGTYAMGWYRQAPGKERELVAAITARTSSTYYADSVKGRFTISRDNAKNTVYLQMNSLKPEDTAVYYCARTGSYRPSFRYDYWGQGTQVTVSS | high polyreactivity
41 | QVQLVESGGGLVQAGGSLRLSCAASGRIFNLNAMVRYRQAPGKERELVAAISKSGTRTYYADSVKGRFTISRDNAKNTVYLQMYSLKPEDTAVYYCGAEALYYDRLGWVYLRYDYWGQGTQVTVSS | high polyreactivity
42 | QVQLVESGGGLVQAGGSLRLSCAASGRIFFRYVMGWYRQAPGKERELVAAIDRGGTTNYADSVKGRFTISRDNAKNTVYLQMNSLKPEDTAVYYCAVRYFPYRDYYWGQGTQVTVSS | high polyreactivity
43 | QVQLVESAAGLVQAGGSLRLSCPASARILRYYAMGWYRQAPGKERELVAAISPRGGRTYYADSVKGRFTISRDNAKNTVYLQMNSLKPEDTAVYYCASPGYFTTPSGSYDYWGQGTQVTVSS | high polyreactivity

Source: the nanobody polyreactivity screen of Harvey et al. (2022)
